Measurements reported in the DeepSol protein solubility set.

test: soluble on expression in E. coli; label from the status in PepcDB or PDB records

Sequence	soluble on expression in E. coli
RQPSSLPEGLPAPLEKRVKELAQAARAAEGESRQKFFTQDINGILLDIEAQTRELSSQVRSGVYAYLASFLPCSKDALLKRARKLHLYEQGGRLKEPLQKLKEAIGRAMPEQMAKYQDECQAHTQAKVAKMLEEEKDKEQRDRICSDEEEDEEKGGRRIMGPRKKFQWNDEIRELLCQVVKIKLESQDLERNNKAQAWEDCVKGFLDAEVKPLWPKGWMQARTLFKESRRGHGHLTSILAKKKVMAPSKIKVKESSTKPDKKVSVPSGQIGGPIALPSDHQTGGLSIGASSRELPSQASGGLANPPPVNLEDSLDEDLIRNPASSVEAVSKELAALNSRAAGNS	not soluble
MSSSGNGRSNNDRADQLRREEQERKDRELAERLQREQSDDTPPAVARRGRNRAAARERASPYSRSRIRSTAGTSDAGPSSSSSVRGRGTRGTTSARRGRGSARGGEATMNRTRANQQISESPNRRRSTRQTRNPNPQMQFEGDRVQVRQGDEIRDITAETYFPDDDDDSDYTQSDNEEEEERNATITISSSESDADSEAESDHEERDMPRAFNPRGSYARSGRGPGGRGRVITPGRYRGSGQHNISADYIRDLLHSRIYPDNPRRDPLYRSGLNNEDESDPENVDADSDDDEAQSNGSSVIDLSDDDDVLIIGGRGAVHADRNHIRQPIFDEDRVMYNHELELYHDEEEYIVPAAKPVSAGGKLVEPDSTWGDCTMCSNPPIKPQGCKKCLQFLGCTDCVRRWYAARKGSMEGSSCPLCRAPWTGRAGVLMMTTIQKNVKKAGITSANTSSDSSLPSTSSLPNN	not soluble
MGSDKIHHHHHHMIHTLYRYCIAFTVVFLSACSVTPRQDASESQAGASAAATLASWNDTRTKRSIVDFVTLVTTPESRDFIPSADRIAVFDNDGTLWPEQPVRVQLVFALQRVKTVAGRHPEWKRQEPFRSILKGNLRSVAASGDAGSLRVLAAAHVGMTSEQFAALAHEWFDSASDPRFNRLYADLAYQPMLELLAYLRANGFKTYLVTGGDVEFVREVAQRMYGIPPEQVIGSTVRYRYSQTNDAISLTRLAQVDTLVDGAAKPLAIDRVIGRRPVIAFGNADGDAPMLEWTSAGDGPRLAALVHHTDAEREYQYDHASQSGKLDKGLDEAAVKGWLIVDMKDDWKTVFKPANTTAPGATGATGATVK	not soluble
MKGKMAIVISTLNNPWFVVLAETAKQRAEQLGYEATIFDSQNDTAKESAHFDAIIAAGYDAIIFNPTDADGSIANVKRAKEAGIPVFCVDRGINARGLAVAQIYSDNYYGGVLMGEYFVKFLKEKYPDAKEIPYAELLGILSAQPTWDRSNGFHSVVDQYPEFKMVAQQSAEFDRDTAYKVTEQILQAHPEIKAIWCGNDAMALGAMKACEAAGRTDIYIFGFDGAEDVINAIKEGKQIVATIMQFPKLMARLAVEWADQYLRGERSFPEIVPVTVELVTRENIDKYTAYGRKEEGSHHHHHH	soluble
MAPPSDSDPREPSPPLFQGRGLTKRFGSFVANQAIDLDIAGGEVHALLGENGAGKSTLVKLITGLLQPDDGRMIWRGTPISFAGPAEARACGIAAVSQHFALFDNLTVVENVALGLDRRISVGRLATELEQISQRYGLPLDPKREVWRLSVGERQRIEIVRALLQNPQLLILDEPTAVLTPAEADRLFDVLQRLRADGRALLYISHKLDEVKRLASVATILRAGRVVGSCDPRQESAASMARMMVGSDVTAPKQSSHSIGGPLLSVSGLTQRPDDPHGVTLRDIALEVRSGEIVGIAGVAGNGQDELFAALSGETPIAQSDVIHIAGEAAGSLSINQRRRLGAAFVPEQRLGHATVPTMSLSDNALLTGHATGALVKFGLVNRGAALALVDRVSEAFDVRKASRDPEAARLSGGNLQKFIVGREILRQPRLLIVDQPSWGLDAGAASAIRQALLDLAASGAAVLVISQDLDELIEIADRIAVMFHGRLSPPRPVSEIGRDQLGLLMGGSGWPAEVRDVAGALEHHHHHH	not soluble
MSLRVENLRSSTYRNGPTGLPNRARFSEDLDAVLLQRTADSAATAIAVDLCGSDYFRDMVKALGWDYADGYVALAYKRLISKLPAGTALYRLDTTTFAFMVTTADPLRLSALCSKISKGFVAPLEHQGIPHTAVASIGAVLLETSYGAADTLRSLTTSVDVAREHCLTWSLYERKHDVVQRNTFRLLAALPAALASSNQLRLHYQPRVDLHDHRCVAVEALLRWQHPMIGPVMPSDFIPMAEKTALINRITAWVIDQGIAQAARWQQQGLDFNLALNVSAADLDQPGFVGLLRRGLDRHKLDPRRLEIEFTESAMIRHPEHLSEQLAAVAALGVHIAIDDFGTGYSNFSYLKQLPASSLKIDQSFVRSLPDSRTDRTLVPAMIQLGHSLGQRVVAEGIESAQAYAQLRSWGCDEGQGYWIAKPMPAAALEAWLETPWYQRATDAEGHHHHHH	soluble
MGSDKIHHHHHHMLSKFWRPQAPQMIGVDIGSYEIKAILLGKTADGYKIQAHSCVPIKKGAVVDHDIRDSAAVIEALKQVKRGLPKSAKFAAVSVSGSAVMTKVIYMDSSLTEEEMEAQIEIEADNLIPYSLDEVSIDFETLKTNKTDPTKVDVLLSACRTENIDSRVDALDAIDIDAKVVDVEGYALGRSAELIMAQLPPGAEEKSVALVDIGANMTTFAVVERGETIFTREQAFGGELFTQAILSTYGMSYDEAENAKIKGELPRNYTFEVLSPFQTQLLQQVKRTLQIYATASGKEKVDYIVLCGGTAKLEGMEALLLNELGINTVVANPFLGCLHGDELIKSQLQPNVNKYMVACGLALRSYAQWRI	not soluble
AARPRKNNVSVPNLYPLYSRKVNKVYWRYKHPVTGKFHALGTNEAEAIAIATEANTRLAEQRTRQILAISDRIATSKGKAITTSTWLDRYQAIQDDRLKSGDIRLNTYKQKAKPVSLLRERAGMKLISAVDVRDIAQLLDEYIAAGRPRMAQVVRSVLIDVFKEAQHYGEVPPGYNPALATKQPRRKITRQRLSLEEWKKIFDIADATHRYMGNAMLLALVTGQRLGDISRMKFSDIWDDHLHVIQEKTGSKIAIPLSLRLNAINWSLRDVVARCRDYAVSAYLVHFFRSTSQAERGAQVKANTLTMNFSKARDLARIDWGEGSPATFHEQRSLSERLYKEQGLDTQKLLGHKTQQQTDRYHDDRGKGWSKVAL	not soluble
MKVDSLHNLSYKEEFEGDMKRSTAAYKKVSEDASIGSTYIADISEVGSQISGEPVQRIKIPEHRQILKRSLIKPVIMAGGNGKRLWPLASKDKPKQFKKILSDLTLLQQTLNRNKFLGQPTIITSKKYESITKEQATEIDVEIALITEPLQKNTAVCAIITALSATALGFDIVVLLPSNHHIADDINYLNTINKALHYVNECGICTIFL	not soluble
HYTSPTVIQAIYNAVEQMDFTPGTVLEPSMGIGNFFGMLPEKLAAAKLYGVELDDLTGRIARQLYQKADITVDGFERTDHPDDFFDLAVGNVPFGSYQVHDKRYDRQNLMIHDYFITKTLDKVRPGGIVAFITTKGTMDKKNSKAREALAQKADLLGAVRLPSNAFKANAGTEVTTDILFFQKRDRIPEKLPEWVEVGQTEDGIPLNRYFLDHPEMVLGTM	not soluble
MGSDKIHHHHHHMSSDIHLAFAHPSERSAATARPGALDRISLRDHIVEVEIGAFQQERGTTQRVCFNVVVEIAPLPADLDDDVDRILSYDKVTEAIAHELARERLALLETLAERVAERILWEPQAVRAFVRIEKLDRGPGKLGVEIVRSADQVSHEADEDVKPHPRLMFLSNAAIDSDNLTGWIDQMECRERPLILCVGAHDLALPQTGHKWTQRRIDLLAIEQNAWRLAARDSRCKVVETRTELDWAMKNGQICVWAPSKIVLDAVEGPSEPPSNAVALAAWFASTFEAEEMIVIGAELPENPGVPLRAHAEEQHTL	not soluble
MKTSEWIDISQPLNNNIATWPGDTPFSYEVSWSKEESGSVNVGKLTMSIHTGTHIDAPFHFDNDGKKVLDLDVQVYVGPARIIDVSNLESIGKKELESFHLEGVERLLLRTSSHGKAEEFPEVIPHLRADIASFLSEKGIRLIGVDVPSVDPLDDKELAAHHQLFKHGIHILENVVLDHVADGDYELIALPLALTDADGSPVRAVIRPILEHHHHHH	soluble
MKASIKGKYDTDKTSGIGSLAFNAGDIKLRATMTDATLVAGPTLTGLALAVEKPGSFIVEYNVPKKDVRFQFMNTVRIAEKPLNLTYIHSRADNRTIVDGSLVIDSANKLSANHMVGTNNCKIKYTYAHGGLATFEPCYDLAKNTWDFAVSRRFYSGDNVRATYQTSSKLLGMEWSRNNKASGFKVCASVNLADELKTPKLTAETTWNLEM	soluble
MGSDKIHHHHHHLAAEIIAVTQQKGGVGKSTIAMHLGAAFHEKGKRVLVVDADGQNTLIHWASASSDGDTGIPFPVVNLSEAGSQIHREIKKFVADYDIIVVDCPPSITEKVSGVVLLAASVAVIPTSSSPADYWSSIGLVKLVQQAQLMNEDLRAVFLLNKTEEKRMLTRELKRALEELGFPLLKTQIPTREAYKQAMALGQTVLQMNDRGAKLAAIEVRACANEIAALLP	not soluble
ISEFDSGETMREEQPHLATTWAARGWVEEEGIGSATLGRLVRAWPRRAAVVNKADILDEWADYDTLVPDYPLEIVPFAEHPLFLAAEPHQRQRVLTGMWIGYNERVIATEQLIAEPAFDLVMHGVFPGSDDPLIRKSVQQAIVDESFHTYMHMLAIDRTRELRKISERPPQPELVTYRRLRRVLADMPEQWERDIAVLVWGAVAETCINALLALLARDATIQPMHSLITTLHLRDETAHGSIVVEVVRELYARMNEQQRRALVRCLPIALEAFAEQDLSALLLELNAAGIRGAEEIVGDLRSTAGGTRLVRDFSGARKMVEQLGLDDAVDFDFPERPDWSPHTPR	soluble
MPRSSLRLLAKPLLESRRGFCTSSDKIVASVLFERLRVVIPKPDPAVYAFQEFKFNWQQQFRRRYPDEFLDIAKNRAKGEYQMDYVPAPRITEADKNNDRKSLYRALDKKLYLLIFGKPFGATSDKPVWHFPEKVYDSEPTLRKCAESALKSVVGDLTHTYFVGNAPMAHMAIQPTEEMPDLPSYKRFFFKCSVVAASKYDISNCEDFVWVTKDELLEFFPEQAEFFNKMIIS	soluble
MKKVLLTLSLSIVASMGSFAQNEPYKNPKLTPEERAEDLLGRLTLKEKIGLMKNSSFAVERLGVAPYNWWSEALHGVARNGLATVFPITMGMASTFDDEAIERVYVAVSDEGRAKFHDAHRSNRYGYGNEGLTFWNPNVNIFRDPRWGRGQETFGEDPYLTTRMGVAVVKGMQGPADAEYDKAHACVKHYAVHSGPEAKRHSFDVEDLSPRDLWETYLPAFKALVQEADVKEVMCAYQRLEGEPCCDSNRLLTQILRDEWGYKHLVVSDCGAIDDFFVKGRHETHKDAADASASAVINGTDLECGSIYSHLEEAVKQGLITEERIDTSLRRLLKARFALGEMDP	not soluble
GPGSMTDLRGVLPSKVISTPSGFVECSTHNVRRKAECCEMKAVLNADMEVIDYICVCKHPFTCKSASERQSNGLAAASNARRNAPDGERSGTAPLVIDASSTSMTAQSQHHHHGGQPSAAGAADKEAGVSTLFAVSFYDASRSTPGPSASATAAAVSPKPSAKDGEDREDEKGKDTRANAMRISDSDSDTDDGDSLDNSPSFTAGATPATAATAASFPAAPRERSRYYDSLQNASTGGHAPPAKVCWGCGMTGHEKPACPNALCRTCHQKRGPYGSPHRCTPVVTPSPLIVYPTPSEWRAATQKTAAAAGEPNGMAAVRCVACNEYGHFDCSTVVLPSSYALVASSSPGPAAVPHTLVPTCCFCGVRGHTVFDCQQREHVNPDYFERRNQLFADSVRRGSGITAAGAPFSNSGSSSGYGHPSQQQRQQRFYGSPTGGAPLSSSSFTRYGNGRGGGGSGQRRERDWCDNREQRVGGSQYSNSRREGSAYNNDSYGGDRDHQRRRYESPSFSRAGGGPAPSSSLLMHGRDRCQEGGQRHHEERSRDSYGGSHQRYSEGEHGGAGSRGHGQRSHYSQQSQHSHRHGSSRRGGRLGDSGYYSDDNLF	not soluble
